Consider eleven substances from patent US20050282743A1, “Molecular interactions in cells” (Arbor Vita Corporation, priority 2001, published 2005).

The target of assay [1] is GST-DLG-1 PDZ domains 1 to 3 (Example 6) (Homo sapiens) (UniProt Q12959). The assay can be described thus: G assay competition vs 20 uM biotin-CLASP-2 20-mer; competitor 100 uM.
Assay [2] shares this target. The assay can be described thus: G assay competition vs 10 uM biotin-CD95 20-mer; competitor 100 uM.
Assay [3] shares this target. Nature of the assay: G assay competition vs 10 uM biotin-KV1.3 20-mer; competitor 100 uM.
The target is the same in assay [4]. The assay can be described thus: G assay competition vs 20 uM biotin-CD46 20-mer; competitor 100 uM.
Assay [5] has as its target GST-BAI-1 Associated Protein PDZ domain 2 (Mus musculus (Mouse)) (UniProt Q6RHR9). The assay can be described thus: G' assay. Further: key of the grades not given here.
Assay [6] concerns the target GST-TIP1 PDZ domain 1 (Table 9 insert) (Homo sapiens (Human)) (UniProt O14907). Nature of the assay: G' assay. Further: key of the grades not given here.
For assay [7], the target named is T1, GST-KIAA0300 PDZ domain 1 (UniProt O15018).
T1 sequence (looked up): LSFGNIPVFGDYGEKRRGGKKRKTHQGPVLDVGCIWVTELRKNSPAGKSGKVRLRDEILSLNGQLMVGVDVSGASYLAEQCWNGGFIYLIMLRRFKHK
The assay can be described thus: G' assay. Further: key of the grades not given here.

The target of assay [8] is GST-p55T PDZ domain 1 (Homo sapiens (Human)) (UniProt Q9NZW5). Nature of the assay: G' assay. Further: key of the grades not given here.
In assay [9] the target is T2, GST-KIAA0300 PDZ domain 2 (UniProt O15018).
T2 sequence (looked up): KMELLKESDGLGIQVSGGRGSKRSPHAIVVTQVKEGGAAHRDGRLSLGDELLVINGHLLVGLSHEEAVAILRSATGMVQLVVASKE
Nature of the assay: G' assay. Further: key of the grades not given here.

Assay [10] deals with GST-DLG-1 PDZ domains 1 to 3 (Example 6) (Homo sapiens) (UniProt Q12959). The assay can be described thus: G assay competition vs 10 uM biotin-KV1.3 20-mer; competitor 50 uM.
Assay [11] has the same target. The assay can be described thus: G assay competition vs 10 uM biotin-CD95 20-mer; competitor 50 uM.
Assay [12] has the same target. The assay can be described thus: G assay competition vs 20 uM biotin-CLASP-2 20-mer; competitor 50 uM.
Assay [13] shares this target. Nature of the assay: G assay competition vs 20 uM biotin-CD46 20-mer; competitor 50 uM.
Assay [14] has as its target GST-PSD95 PDZ domains 1, 2, 3 (Homo sapiens) (UniProt P78352). The assay can be described thus: G assay competition vs 10 uM biotin-KV1.3 20-mer; competitor 500 uM.
Assay [15] addresses GST-DLG-1 PDZ domains 1 to 3 (Example 6) (Homo sapiens) (UniProt Q12959). The assay can be described thus: G assay competition vs 20 uM biotin-CD46 20-mer; competitor 1000 uM.
Assay [16] deals with GST-PSD95 PDZ domains 1, 2, 3 (Homo sapiens) (UniProt P78352). The assay is described as above.
GST-PSD95 PDZ domains 1, 2, 3 (Homo sapiens), sequence (P78352 62-395): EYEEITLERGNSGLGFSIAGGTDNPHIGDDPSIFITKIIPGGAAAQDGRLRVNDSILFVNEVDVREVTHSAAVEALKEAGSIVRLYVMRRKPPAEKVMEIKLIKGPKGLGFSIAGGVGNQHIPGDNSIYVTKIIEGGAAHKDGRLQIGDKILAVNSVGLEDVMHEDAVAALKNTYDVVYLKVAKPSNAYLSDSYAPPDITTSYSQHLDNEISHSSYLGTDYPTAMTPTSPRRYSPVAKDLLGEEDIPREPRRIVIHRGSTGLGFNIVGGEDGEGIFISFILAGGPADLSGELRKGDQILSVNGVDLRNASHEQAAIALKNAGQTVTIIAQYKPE
For assay [17], the target named is GST-DLG-1 PDZ domains 1 to 3 (Example 6) (Homo sapiens) (UniProt Q12959). The assay can be described thus: G assay competition vs 20 uM biotin-CLASP-2 20-mer; competitor 1000 uM.
Assay [18] deals with GST-PSD95 PDZ domains 1, 2, 3 (Homo sapiens) (UniProt P78352). The description is as above.
In assay [19] the target is GST-DLG-1 PDZ domains 1 to 3 (Example 6) (Homo sapiens) (UniProt Q12959). Nature of the assay: G assay competition vs 10 uM biotin-CD95 20-mer; competitor 1000 uM.
In assay [20] the target is GST-PSD95 PDZ domains 1, 2, 3 (Homo sapiens) (UniProt P78352). Described as above.
Assay [21] has the same target. Nature of the assay: G assay competition vs 10 uM biotin-KV1.3 20-mer; competitor 1000 uM.
Assay [22] concerns the target GST-DLG-1 PDZ domains 1 to 3 (Example 6) (Homo sapiens) (UniProt Q12959). Nature of the assay: G assay competition vs 20 uM biotin-CLASP-2 20-mer; competitor 500 uM.
Assay [23] concerns the target GST-PSD95 PDZ domains 1, 2, 3 (Homo sapiens) (UniProt P78352). Described as above.
In assay [24] the target is GST-DLG-1 PDZ domains 1 to 3 (Example 6) (Homo sapiens) (UniProt Q12959). The assay can be described thus: G assay competition vs 10 uM biotin-CD95 20-mer; competitor 500 uM.
The target of assay [25] is GST-PSD95 PDZ domains 1, 2, 3 (Homo sapiens) (UniProt P78352). The assay is described as above.
The target in assay [26] is GST-DLG-1 PDZ domains 1 to 3 (Example 6) (Homo sapiens) (UniProt Q12959). Nature of the assay: G assay competition vs 20 uM biotin-CD46 20-mer; competitor 500 uM.
The target in assay [27] is GST-PSD95 PDZ domains 1, 2, 3 (Homo sapiens) (UniProt P78352). The assay is described as above.

GST-TIP1 PDZ domain 1 (Table 9 insert) (Homo sapiens (Human)), sequence (O14907 14-116): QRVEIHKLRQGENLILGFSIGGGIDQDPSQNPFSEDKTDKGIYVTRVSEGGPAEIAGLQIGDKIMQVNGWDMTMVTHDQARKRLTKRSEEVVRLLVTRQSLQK
GST-BAI-1 Associated Protein PDZ domain 2 (Mus musculus (Mouse)), sequence (Q6RHR9 455-558): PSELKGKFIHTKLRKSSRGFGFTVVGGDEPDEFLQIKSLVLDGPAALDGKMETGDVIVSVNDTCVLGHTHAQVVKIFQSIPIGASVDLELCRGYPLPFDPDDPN

Consider CD46 8-mer (peptide), for which the % binding of labelled 20-mer turned out to be 90% in assay [1], 68% in [2], 63% in assay [3] and 90% in [4].
Consider HPV E6 #18 (peptide), for which the Classification in [5] is 5 A450 class; in assay [6], 4 A450 class.
Substance MINT-1 (peptide) displayed a Classification in assay [7] of 4 A450 class.
AdenoE4 typ9 (peptide) had a Classification in assay [7] of 1 A450 class.
Turning to ephrin B2 (peptide), in [7], the Classification came out at 2 A450 class.
Consider MINT-2 (peptide), for which the Classification in assay [8] came out at 1 A450 class; in assay [7], 3 A450 class.
As for presenilin-1 (peptide), the Classification in [8] came to 1 A450 class.
Consider presenilin-2 (peptide), for which the Classification in assay [7] and in assay [9] was 1 A450 class each time.
Take “unlabeled 8 amino acid peptide corresponding to the C-terminus of CD95”: the % binding of labelled 20-mer in [10] came to 84%; in assay [11] it was 70%; in [12], 73%; in [13] it was 110%.
In assay [7], “CSPG4 (chondroitin sulfae proteoglycan 4, melanoma-associated) (peptide)” yielded a Classification of 2 A450 class.
Consider CLASP-2 3-mer (peptide), for which the % binding of labelled 20-mer was 81% in [14]; 45% in assay [15]; 59% in [16]; 59% in assay [17]; 63% in assay [18]; 46% in assay [19]. The % binding of labelled 20-mer in assay [20] was 55%; in assay [21] it was 50%; in assay [22], 61%; in assay [23], 82%; in assay [24] it was 51%; in assay [25], 55%. Besides, the % binding of labelled 20-mer in assay [26] turned out to be 72%; in assay [27], 75%.
